Data: paper PMC9800333, “Determinants of receptor tyrosine phosphatase homophilic adhesion: Structural comparison of PTPRK and PTPRM extracellular domains” (The Journal of Biological Chemistry, 2022)
Positions count from the first letter of the chain named. In names and notes the source's numbering stands.

B1: full-length PTPRK extracellular domain (domain or fragment, human, UniProt Q15262-3 28-752, looked up)
chain: QGQFSAGGCTFDDGPGACDYHQDLYDDFEWVHVSAQEPHYLPPEMPQGSYMIVDSSDHDPGEKARLQLPTMKENDTHCIDFSYLLYSQKGLNPGTLNILVRVNKGPLANPIWNVTGFTGRDWLRAELAVSTFWPNEYQVIFEAEVSGGRSGYIAIDDIQVLSYPCDKSPHFLRLGDVEVNAGQNATFQCIATGRDAVHNKLWLQRRNGEDIPVAQTKNINHRRFAASFRLQEVTKTDQDLYRCVTQSERGSGVSNFAQLIVREPPRPIAPPQLLGVGPTYLLIQLNANSIIGDGPIILKEVEYRMTSGSWTETHAVNAPTYKLWHLDPDTEYEIRVLLTRPGEGGTGLPGPPLITRTKCAEPMRTPKTLKIAEIQARRIAVDWESLGYNITRCHTFNVTICYHYFRGHNESKADCLDMDPKAPQHVVNHLPPYTNVSLKMILTNPEGRKESEETIIQTDEDVPGPVPVKSLQGTSFENKIFLNWKEPLDPNGIITQYEISYSSIRSFDPAVPVAGPPQTVSNLWNSTHHVFMHLHPGTTYQFFIRASTVKGFGPATAINVTTNISAPTLPDYEGVDASLNETATTITVLLRPAQAKGAPISAYQIVVEELHPHRTKREAGAMECYQVPVTYQNAMSGGAPYYFAAELPPGNLPEPAPFTVGDNRTYQGFWNPPLAPRKGYNIYFQAMSSVEKETKTQCVRIATKAAATEEPEVIPDPAKQTDRVV
modifications: native N-linked glycans (no deglycosylation)
notes: human PTPRK, full extracellular domain (MAM, Ig, FN1-4), residues 28-752; numbers count on: UniProt Q15262-3; Cloned into pHLSec (AgeI/KpnI) in frame with the vector's N-terminal secretion signal; The C-terminal His6 tag was included in the SAXS models; also called PTPRK-ECD; PTPRK full ECD; not shown: Lys-His6, C-terminal, kept
B2: PTPRK MAM-Ig-FN1 domains (domain or fragment, human, UniProt Q15262-3 28-385, looked up)
chain: QGQFSAGGCTFDDGPGACDYHQDLYDDFEWVHVSAQEPHYLPPEMPQGSYMIVDSSDHDPGEKARLQLPTMKENDTHCIDFSYLLYSQKGLNPGTLNILVRVNKGPLANPIWNVTGFTGRDWLRAELAVSTFWPNEYQVIFEAEVSGGRSGYIAIDDIQVLSYPCDKSPHFLRLGDVEVNAGQNATFQCIATGRDAVHNKLWLQRRNGEDIPVAQTKNINHRRFAASFRLQEVTKTDQDLYRCVTQSERGSGVSNFAQLIVREPPRPIAPPQLLGVGPTYLLIQLNANSIIGDGPIILKEVEYRMTSGSWTETHAVNAPTYKLWHLDPDTEYEIRVLLTRPGEGGTGLPGPPLITRTK
modifications: native N-linked glycans (no deglycosylation); glycans seen in the structure at N101, N140 and N211
notes: human PTPRK, N-terminal MAM, Ig and first FN domains, residues 28-385; numbers count on: UniProt Q15262-3; Cloned into pHLSec (AgeI/KpnI) in frame with the vector's N-terminal secretion signal; also called PTPRK-MIFN1; MIFN1
B3: PTPRK-MIFN1.W351G (domain or fragment, human, UniProt Q15262-3 28-385, looked up)
chain: B2 chain with W324G
notes: human PTPRK, MAM-Ig-FN1 domains, residues 28-385, with W351G; numbers count on: UniProt Q15262-3; PDB 8A1F is the wild-type parent; also called W315G mutant form of PTPRK-MIFN1; source: expressed and purified (as PTPRK-MIFN1: human embryonic kidney-293F cells, nickel-nitrilotriacetic acid agarose, SEC)

Molecular target: the molecule itself
Test: SEC-MALS; pH 8: 100 ul at 1 mg/ml on Superdex 200 Increase 10/300 GL in 100 mM Tris-HCl, pH 8, 250 mM NaCl; protein conjugate analysis for glycans; dimer to monomers

Protein	stoichiometry N	binding result
B1	2	
B2	2	
B3		binds
